Data as given in PMC3725402.

What was measured:
Assay type in all cases: biochemical, Arabidopsis thaliana
[1] = substrate: NCCCCN; test: HPLC of dansylated N-methylputrescine, fluorimetric; conditions: PMT activity, co-substrate SAM, 20 mM HEPES pH 8.0, 37°C, 2 mM DTT, 1 mM ascorbic acid
Excerpt: (§1) HPLC of dansylated N-methylputrescine, fluorimetric on AtSPDS1 (spermidine synthase 1)

[2] = substrate: C[S+](CC[C@H](N)C(=O)O)C[C@H]1O[C@@H](n2cnc3c(N)ncnc32)[C@H](O)[C@@H]1O; test: as above; conditions: PMT activity, co-substrate putrescine, 20 mM HEPES pH 8.0, 37°C, 2 mM DTT, 1 mM ascorbic acid
Excerpt: as §1

[3] = substrate: C[S+](CCCN)C[C@H]1O[C@@H](n2cnc3c(N)ncnc32)[C@H](O)[C@@H]1O; test: HPLC of dansylated spermidine, fluorimetric; conditions: SPDS activity, co-substrate putrescine, 20 mM HEPES pH 8.0, 37°C, 2 mM DTT, 1 mM ascorbic acid
Excerpt: (§2) HPLC of dansylated spermidine, fluorimetric on AtSPDS1 (spermidine synthase 1)

[4] = substrate: NCCCCN; test: HPLC of dansylated spermidine, fluorimetric; conditions: SPDS activity, co-substrate dcSAM, 20 mM HEPES pH 8.0, 37°C, 2 mM DTT, 1 mM ascorbic acid
Excerpt: as §2

| Protein | Km [1] [µM] | kcat [1] [s⁻¹] | Km [2] [µM] | kcat [2] [s⁻¹] | Km [3] [µM] | kcat [3] [s⁻¹] | Km [4] [µM] | kcat [4] [s⁻¹] |
| --- | --- | --- | --- | --- | --- | --- | --- | --- |
| AtSPDS1 (spermidine synthase 1) (Arabidopsis thaliana; D131I/Q107T/V134T) (protein, pQE-30, N-terminal His tag, E. coli M15[pREP4], HisTrap purified) MDAKETSATDLKRPREEDDNGGAATMETENGDQKKEPACFSTVIPGWFSEMSPMWPGEAHSLKVEKVLFQGKSDYQDVIVFQSATYGKVLVLDGVIQLTERDECAYTEMITHLPLCSIPNPKKVLVIGGGIGGTLREVARHASIEQIDMCEIDKMVVDVSKQFFPDVAIGYEDPRVNLVIGDGVAFLKNAAEGSYDAVIVDSSDPIGPAKELFEKPFFQSVARALRPGGVVCTQAESLWLHMDIIEDIVSNCREIFKGSVNYAWTSVPTYPSGVIGFMLCSTEGPDVDFKHPLNPIDESSSKSNGPLKFYNAEIHSAAFCLPSFAKKVIESKAN | 32 ± 1.88 | 0.081 | 12 ± 0.60 | 0.081 |  |  |  |  |
| AtSPDS1 (spermidine synthase 1) (Arabidopsis thaliana) (protein, pQE-30, N-terminal His tag, E. coli M15[pREP4], HisTrap purified) MDAKETSATDLKRPREEDDNGGAATMETENGDQKKEPACFSTVIPGWFSEMSPMWPGEAHSLKVEKVLFQGKSDYQDVIVFQSATYGKVLVLDGVIQLTERDECAYQEMITHLPLCSIPNPKKVLVIGGGDGGVLREVARHASIEQIDMCEIDKMVVDVSKQFFPDVAIGYEDPRVNLVIGDGVAFLKNAAEGSYDAVIVDSSDPIGPAKELFEKPFFQSVARALRPGGVVCTQAESLWLHMDIIEDIVSNCREIFKGSVNYAWTSVPTYPSGVIGFMLCSTEGPDVDFKHPLNPIDESSSKSNGPLKFYNAEIHSAAFCLPSFAKKVIESKAN |  |  |  |  | 18 ± 1.23 | 0.722 | 220 ± 18.44 | 0.722 |
| AtSPDS1 (spermidine synthase 1) (Arabidopsis thaliana; D131I) (protein, pQE-30, N-terminal His tag, E. coli M15[pREP4], HisTrap purified) MDAKETSATDLKRPREEDDNGGAATMETENGDQKKEPACFSTVIPGWFSEMSPMWPGEAHSLKVEKVLFQGKSDYQDVIVFQSATYGKVLVLDGVIQLTERDECAYQEMITHLPLCSIPNPKKVLVIGGGIGGVLREVARHASIEQIDMCEIDKMVVDVSKQFFPDVAIGYEDPRVNLVIGDGVAFLKNAAEGSYDAVIVDSSDPIGPAKELFEKPFFQSVARALRPGGVVCTQAESLWLHMDIIEDIVSNCREIFKGSVNYAWTSVPTYPSGVIGFMLCSTEGPDVDFKHPLNPIDESSSKSNGPLKFYNAEIHSAAFCLPSFAKKVIESKAN | 56 ± 4.45 | 0.00448 | 28 ± 0.77 | 0.00448 |  |  |  |  |
